# B1: AzoR (Escherichia coli K-12) (protein)
# chain: SKVLVLKSSILAGYSQSNQLSDYFVEQWREKHSADEITVRDLAANPIPVLDGELVGALRPSDAPLTPRQQEALALSDELIAELKAHDVIVIAAPMYNFNISTQLKNYFDLVARAGVTFRYTENGPEGLVTGKKAIVITSRGGIHKDGPTDLVTPYLSTFLGFIGITDVKFVFAEGIAYGPEMAAKAQSDAKAAIDSIVSA
# Substrate: COc1cc(S(=O)(=O)O)c(C)cc1N=Nc1c(O)ccc2cc(S(=O)(=O)O)ccc12
# Experiment: purified protein
# Settings: 2,000 µM NADH, 20 µM FMN, 20 mM sodium phosphate buffer, 37°C, aerobic
protein,measurement,value
B1,Km,67.7 µM
